Measured values reported in publication PMC5727386, “Structural and functional dissection of the DH and PH domains of oncogenic Bcr-Abl tyrosine kinase” (Nature Communications, 2017).
Each block holds one binder with its values, some of them ahead of it.

How the values were obtained:
[1] = target: T1, biotinylated Bcr-Abl PH domain (Avi-tag) (UniProt P11274 704-893, biotin on the Avi-tag); assay: flow cytometry on cells; monobody displayed on yeast surface; biotinylated target 10 nM to 1 uM in TBS with 0.1% BSA, 30 min at RT; streptavidin-DyLight650; 1:1 binding model; apparent Kd; details: one partner purified
T1 construct: Bcr part of Bcr-Abl p210, Pleckstrin-homology domain, residues 704-893; Cloned in pHBT1; the limits are those stated for the PH domain construct; also called biotinylated PH; source: E. coli BL21(DE3), co-expressed with BirA and 50 uM biotin, purified; not shown: Avi-tag, N-terminal, kept
T1 sequence (looked up): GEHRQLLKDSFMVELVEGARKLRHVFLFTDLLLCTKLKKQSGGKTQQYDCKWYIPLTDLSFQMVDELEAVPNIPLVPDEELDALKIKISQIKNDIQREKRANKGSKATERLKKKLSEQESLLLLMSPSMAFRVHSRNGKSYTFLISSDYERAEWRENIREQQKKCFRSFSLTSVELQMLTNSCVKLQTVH

[2] = target: T2, biotinylated Bcr-Abl DH-PH tandem domain (Avi-tag) (UniProt P11274 487-893, biotin on the Avi-tag); assay: as above; details: one partner purified
T2 construct: Bcr part of Bcr-Abl p210, DH-PH tandem domain, residues 487-893; Cloned in pHBT1, which for the monobodies is said to give an N-terminal His- and Avi-tag followed by a TEV site; also called biotinylated DH-PH domain; source: E. coli BL21(DE3), co-expressed with BirA and 50 uM biotin, purified; not shown: Avi-tag, N-terminal, kept
T2 sequence (looked up): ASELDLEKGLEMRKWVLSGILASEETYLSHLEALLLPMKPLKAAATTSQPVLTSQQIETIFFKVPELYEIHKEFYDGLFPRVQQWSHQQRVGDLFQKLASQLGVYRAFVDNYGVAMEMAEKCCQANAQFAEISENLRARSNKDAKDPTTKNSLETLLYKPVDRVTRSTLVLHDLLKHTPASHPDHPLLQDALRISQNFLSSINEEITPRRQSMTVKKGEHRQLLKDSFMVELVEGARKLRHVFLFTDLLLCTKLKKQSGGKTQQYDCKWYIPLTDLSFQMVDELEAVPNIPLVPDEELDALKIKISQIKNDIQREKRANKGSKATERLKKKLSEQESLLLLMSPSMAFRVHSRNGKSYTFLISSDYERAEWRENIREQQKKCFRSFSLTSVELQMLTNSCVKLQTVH

[3] = target: T3, Bcr-Abl DH domain (residues 487-702); assay: ITC; monobody (200 uM stock) titrated to the DH domain (20 uM) at 25 °C; 25 mM HEPES pH 7.5, 150 mM NaCl, 0.5 mM TCEP; 1:1 binding model; details: both partners purified
T3 construct: Bcr part of Bcr-Abl p210, Dbl-homology domain, residues 487-702; 15N-labelled for the NMR experiments; also called Bcr DH; source: E. coli Rosetta(DE3), purified (Ni-NTA, TEV cleavage, reverse Ni, SEC); not shown: His-tag, N-terminal, cleaved
T3 chain: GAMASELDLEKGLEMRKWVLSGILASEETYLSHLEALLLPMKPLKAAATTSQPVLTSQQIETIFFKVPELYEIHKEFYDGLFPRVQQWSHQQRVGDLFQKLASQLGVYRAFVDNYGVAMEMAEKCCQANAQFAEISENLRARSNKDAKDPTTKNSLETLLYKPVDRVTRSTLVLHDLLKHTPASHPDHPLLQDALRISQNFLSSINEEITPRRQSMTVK

B2: monobody Mb(Bcr-DH_4), displayed on yeast surface (designed binder)
chain: VSSVPTKLEVVAATPTSLLISWDAPAVTVDLYVITYGETGGNSPVQEFEVPGSKSTATISGLKPGVDYTITVYAGSYAYEYYWGPSPISINYRT
notes: monobody on the fibronectin type III scaffold, side-and-loop library
Kd [2]: 20 ± 7 nM

B4: monobody Mb(Bcr-DH_3), displayed on yeast surface (designed binder)
chain: VSSVPTKLEVVAATPTSLLISWDAPAVTVDLYVITYGETGGNSPVQAFEVPGSKSTATISGLKPGVDYTITVYAGSETYRGYWSPISINYRT
notes: as for B2
Kd [2]: 18 ± 5 nM

B5: monobody Mb(Bcr-DH_3), purified (designed binder)
chain: B4 chain
notes: monobody on the fibronectin type III scaffold, side-and-loop library; also called Mb(DH_3); source: E. coli BL21(DE3), purified; not shown: His-tag, N-terminal, cleaved; Avi-tag, N-terminal, cleaved
Kd [3]: 2.1 nM
stoichiometry N [3]: 0.78

Now from value to binder:

Kd [1]: 63 ± 12 nM
B1: monobody Mb(Bcr-PH_3), displayed on yeast surface (designed binder)
chain: VSSVPTKLEVVAATPTSLLISWDAPAVTVVFYVITYGETGGNSPVQEFTVPGSKSTATISGLKPGVDYTITVYAEYYGYSGWQSPISINYRT
notes: as for B2

Kd [3]: 14.5 ± 8.6 nM
stoichiometry N [3]: 0.94
B3: monobody Mb(Bcr-DH_4), purified (designed binder)
chain: B2 chain
notes: monobody on the fibronectin type III scaffold, side-and-loop library; also called Mb(DH_4); S10; source: E. coli BL21(DE3), purified; not shown: His-tag, N-terminal, cleaved; Avi-tag, N-terminal, cleaved

Kd [1]: 46 ± 10 nM
B6: monobody Mb(Bcr-PH_2), displayed on yeast surface (designed binder)
chain: VSSVPTKLEVVAATPTSLLISWDAPAVTVVFYVITYGETGGNSPVQEFTVPGSKSTATISGLKPGVDYTITVYAEYYGYTSSPISINYRT
notes: as for B2
